Results reported in patent US20150344570A1 (published 2015).

T1: FcγRIIb extracellular domain with C-terminal His tag (human, UniProt P31994 43-217)
T1 construct: extracellular domain; Expressed in FreeStyle293 cells; analyte in the SPR assay; also called FcgRIIb; 2b
T1 sequence (looked up): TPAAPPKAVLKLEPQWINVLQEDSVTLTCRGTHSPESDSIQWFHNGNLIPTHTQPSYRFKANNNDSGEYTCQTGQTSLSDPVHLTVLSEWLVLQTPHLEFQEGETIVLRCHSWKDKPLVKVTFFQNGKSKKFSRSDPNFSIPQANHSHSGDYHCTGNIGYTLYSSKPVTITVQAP

T2: FcγRIIa R (FcγRIIa allotype with Arg at position 131), extracellular domain with C-terminal His tag (human, UniProt P12318 34-217)
T2 construct: extracellular domain; made in FreeStyle293 cells; analyte in the Biacore assay; also called FcγRIIa type R; 2aR
T2 sequence (looked up): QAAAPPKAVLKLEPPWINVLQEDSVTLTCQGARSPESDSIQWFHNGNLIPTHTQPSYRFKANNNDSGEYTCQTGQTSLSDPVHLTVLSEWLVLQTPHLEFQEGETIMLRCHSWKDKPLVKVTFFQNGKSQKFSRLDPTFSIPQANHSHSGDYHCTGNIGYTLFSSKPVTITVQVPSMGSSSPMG

T3: FcγRIIb, extracellular domain with C-terminal His tag (human, UniProt P31994 43-217)
T3 construct: extracellular domain; made in FreeStyle293 cells; analyte in the Biacore assay; also called 2b; FcgRIIb
T3 sequence (looked up): T1 sequence (looked up)

B1: GpH7-A5/GpH7-B3 variant L234_13S/GpL16-k0 (He Ab) (antibody, human IgG1, kappa)
heavy 1: not shown
heavy 2: not shown
light: DIVMTQSPLSLPVTPGEPASISCQASESLVHSNRNTYLHWYLQKPGQSPQLLIYKVSNRFSGVPDRFSGSGSGTDFTLKISRVEAEDVGVYYCSQNTHVPPTFGQGTKVEIERTVAAPSVFIFPPSDEQLKSGTASVVCLLNNFYPREAKVQWKVDNALQSGNSQESVTEQDSKDSTYSLSSTLTLSKADYEKHKVYACEVTHQGLSSPVTKSFNRGEC
notes: He Ab: mutation in one H chain only
B2: GpH7-A5/GpH7-B3 variant G236_02A/GpL16-k0 (antibody, human IgG1, kappa)
heavy 1: not shown
heavy 2: not shown
light: B1 light
notes: heterodimerized IgG1, mutation in one H chain only; also called He Ab
B3: GpH7-A5/GpH7-B3 variant L235_11K/GpL16-k0 (He Ab) (antibody, human IgG1, kappa)
heavy 1: not shown
heavy 2: not shown
light: B1 light
notes: as for B1
B4: GpH7-A5/GpH7-B3 variant L234_12R/GpL16-k0 (antibody, human IgG1, kappa)
heavy 1: not shown
heavy 2: not shown
light: B1 light
notes: as for B2
B5: GpH7-A5/GpH7-B3 variant G236_13S/GpL16-k0 (antibody, human IgG1, kappa)
heavy 1: not shown
heavy 2: not shown
light: B1 light
notes: as for B2
B6: GpH7-A5/GpH7-B3 variant L235_19Q/GpL16-k0 (He Ab) (antibody, human IgG1, kappa)
heavy 1: not shown
heavy 2: not shown
light: B1 light
notes: as for B1
B7: GpH7-A5/GpH7-B3 variant G236_05P/GpL16-k0 (antibody, human IgG1, kappa)
heavy 1: not shown
heavy 2: not shown
light: B1 light
notes: as for B2
B8: GpH7-A5/GpH7-B3 variant G236_07I/GpL16-k0 (antibody, human IgG1, kappa)
heavy 1: not shown
heavy 2: not shown
light: B1 light
notes: as for B2
B9: GpH7-A5/GpH7-B3 variant L234_01G/GpL16-k0 (antibody, human IgG1, kappa)
heavy 1: not shown
heavy 2: not shown
light: B1 light
notes: as for B2
B10: GpH7-A5/GpH7-B3 variant L234_11K/GpL16-k0 (antibody, human IgG1, kappa)
heavy 1: not shown
heavy 2: not shown
light: B1 light
notes: as for B2
B11: GpH7-A5/GpH7-B3 variant L234_02A/GpL16-k0 (antibody, human IgG1, kappa)
heavy 1: not shown
heavy 2: not shown
light: B1 light
notes: as for B2
B12: GpH7-A5/GpH7-B3 variant L235_03V/GpL16-k0 (He Ab) (antibody, human IgG1, kappa)
heavy 1: not shown
heavy 2: not shown
light: B1 light
notes: as for B1
B13: GpH7-A5/GpH7-B3 variant G236_06M/GpL16-k0 (antibody, human IgG1, kappa)
heavy 1: not shown
heavy 2: not shown
light: B1 light
notes: as for B2
B14: GpH7-A5/GpH7-B3 variant L234_14T/GpL16-k0 (antibody, human IgG1, kappa)
heavy 1: not shown
heavy 2: not shown
light: B1 light
notes: as for B2
B15: GpH7-A5/GpH7-B3 variant G236_08L/GpL16-k0 (antibody, human IgG1, kappa)
heavy 1: not shown
heavy 2: not shown
light: B1 light
notes: as for B2
B16: GpH7-A5/GpH7-B3 variant L235_02A/GpL16-k0 (He Ab) (antibody, human IgG1, kappa)
heavy 1: not shown
heavy 2: not shown
light: B1 light
notes: as for B1

Key:
[1] = target: T4, FcγRIa extracellular domain with C-terminal His tag (human, UniProt P12314 16-292); assay: SPR (Biacore), relative binding, HeCon Ab = 100
T4 construct: extracellular domain; Expressed in FreeStyle293 cells; analyte in the SPR assay; also called FcgRI; 1a

[2] = target: T1, FcγRIIb extracellular domain with …; assay: SPR (Biacore), relative binding, HeCon Ab = 100
[3] = target: T4, FcγRIa extracellular domain with …; assay: SPR (Biacore); He/Con_1a divided by He/Con_2b (FcγRIa against FcγRIIb)
[4] = target: T2, FcγRIIa R (FcγRIIa allotype with Arg at …); assay: SPR (Biacore), antibody captured, FcγR analyte; vs GpH7-A5/GpH7-B3/GpL16-k0 = 100
Description: (§1) The heterodimerized antibodies He Abs in which one of the H chains was introduced with an alteration were assayed for their binding activities to each activating FcγR and inhibitory FcγR according to the method described in Example 4. […] The activating FcγRs in FIGS. 26, 27, 28, and 29 are FcγRIa, FcγRIIa (R), FcγRIIa (H), and FcγRIIIa, respectively.
(§2) Analysis of interaction between objective antibody and the FcγR was carried out using Biacore T100 (GE Healthcare). HBS-EP+ (GE Healthcare) was used as the running buffer, and the measurement temperature was set to 25° C. Chips produced by immobilizing the antigen peptide by the amine coupling method to a Series S Sencor Chip CM5 (GE Healthcare), or alternatively, chips produced by allowing preliminarily biotinylated antigen peptides to interact with and immobilize onto a Series S Sensor Chip SA (certified) (GE Healthcare) were used. Antibodies of interest were captured onto an antigen peptide-immobilized chip, and allowed to interact to each FcγR diluted with running buffer. To regenerate and repeatedly use the chip, the antibodies captured on the chip were washed off by reacting 10 mM glycine-HCl, pH 1.5.

[5] = target: T3, FcγRIIb, extracellular domain with …; assay: as above
Description: as §1, §2

[6] = target: T2, FcγRIIa R (FcγRIIa allotype with Arg at …); assay: SPR (Biacore); He/Con_2aR divided by He/Con_2b, binding to FcγRIIa R against binding to FcγRIIb
Description: as §1, §2

T4 sequence (P12314 16-292): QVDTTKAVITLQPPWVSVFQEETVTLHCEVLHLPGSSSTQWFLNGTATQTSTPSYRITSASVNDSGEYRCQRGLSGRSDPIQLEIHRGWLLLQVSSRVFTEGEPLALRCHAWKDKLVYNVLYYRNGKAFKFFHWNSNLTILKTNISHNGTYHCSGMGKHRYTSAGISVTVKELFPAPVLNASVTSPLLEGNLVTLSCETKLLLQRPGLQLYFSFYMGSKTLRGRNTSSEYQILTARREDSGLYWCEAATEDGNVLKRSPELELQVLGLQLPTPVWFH

| Binder | He/Con_1a [1] | He/Con_2b [2] | He_1a/2b (Ia/IIb) [3] [ratio] | He/Con_2aR [4] | He/Con_2b [5] | He_2aR/2b (IIaR/IIb) [6] [ratio] |
| --- | --- | --- | --- | --- | --- | --- |
| B1 | 96.9 % of HeCon Ab (=100) | 59.3 % of HeCon Ab (=100) | 1.63 | – | – | – |
| B2 | – | – | – | 146 relative (HeCon Ab = 100) | 96.5 relative (HeCon Ab = 100) | 1.51 |
| B3 | 79.9 % of HeCon Ab (=100) | 6.3 % of HeCon Ab (=100) | 12.7 | – | – | – |
| B4 | – | – | – | 29.9 relative (HeCon Ab = 100) | 18.9 relative (HeCon Ab = 100) | 1.58 |
| B5 | – | – | – | 136 relative (HeCon Ab = 100) | 96.7 relative (HeCon Ab = 100) | 1.41 |
| B6 | 94 % of HeCon Ab (=100) | 42.6 % of HeCon Ab (=100) | 2.21 | – | – | – |
| B7 | – | – | – | 47.9 relative (HeCon Ab = 100) | 19 relative (HeCon Ab = 100) | 2.52 |
| B8 | – | – | – | 87.1 relative (HeCon Ab = 100) | 31 relative (HeCon Ab = 100) | 2.81 |
| B9 | – | – | – | 62.3 relative (HeCon Ab = 100) | 50.7 relative (HeCon Ab = 100) | 1.23 |
| B10 | – | – | – | 26.8 relative (HeCon Ab = 100) | 16.2 relative (HeCon Ab = 100) | 1.66 |
| B11 | – | – | – | 79.6 relative (HeCon Ab = 100) | 64.9 relative (HeCon Ab = 100) | 1.23 |
| B12 | 94.7 % of HeCon Ab (=100) | 66.4 % of HeCon Ab (=100) | 1.43 | – | – | – |
| B13 | – | – | – | 57.3 relative (HeCon Ab = 100) | 45.5 relative (HeCon Ab = 100) | 1.26 |
| B14 | – | – | – | 77.5 relative (HeCon Ab = 100) | 62.5 relative (HeCon Ab = 100) | 1.24 |
| B15 | – | – | – | 65.8 relative (HeCon Ab = 100) | 26.8 relative (HeCon Ab = 100) | 2.45 |
| B16 | 92.2 % of HeCon Ab (=100) | 63 % of HeCon Ab (=100) | 1.46 | – | – | – |
